According to PMC7108782, “Direct interaction of metastasis-inducing S100P protein with tubulin causes enhanced cell migration without changes in cell adhesion” (Biochemical Journal, 2020):
Entries after “also recorded” stand apart in the source; their conditions may differ. No end group written: not given here.

Columns and labels:
S100P = biological target: T1, S100P (Homo sapiens, UniProt P25815); assay: Isothermal titration calorimetry (ITC) of tubulin peptides with S100P; type: binding; conditions: ITC, 25°C, 20 mM MES pH 6.1, 50 mM NaCl, 1.0 mM TCEP, 5 mM CaCl2; single site fit; peptide in cell, S100P titrated
T1 construct: made in house
T1 sequence (P25815 1-95): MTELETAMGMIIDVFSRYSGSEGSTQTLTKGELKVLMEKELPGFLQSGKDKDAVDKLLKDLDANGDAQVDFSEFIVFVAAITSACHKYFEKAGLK
Experimental: Measurements were conducted using an ITC-200 instrument (Microcal) as previously described. ITC titrations were performed in 20 mM MES pH 6.1, 50 mM NaCl, 1.0 mM TCEP and 5 mM CaCl2 (for Ca^2+-form of S100P) at 25°C. Due to low solubility, peptide solutions at concentrations of 10–400 µM were placed in the cell and titrated with S100P at concentrations of 0.5–3 mM, depending on the peptide concentration. Data were integrated and fitted to a single site binding equation using Origin 7 software which was included with the ITC module (Malvern Microcal, Malvern, U.K.).

[1] = type: physicochemical; conditions: pH 6.1
Experimental: ^1H, ^15N HSQC spectra were measured at 40°C in 20 mM 2-morpholinoethanesulfonic acid sodium salt (MES), 50 mM NaCl, 0.5 mM CaCl2, 2 mM Tris-carboxyethyl-phosphine (TCEP), pH 6.1 buffer as described previously. Samples were prepared from 1.6 mM solution of ^15N-labelled S100P and 2–5 mM peptide solutions to obtain a 1 : 1 mixture of 0.1 mM of S100P and 0.1 mM of each peptide. Initially, peptide solutions were prepared by weight to produce 5 mM peptide concentrations. […] In these cases, buffer was added to reduce the peptide concentration to 2 mM. […] These peptides were added to the protein as cloudy suspensions to produce 0.1 mM solutions; some precipitations were still detected. To estimate the peptide concentrations, equivalent peptide solutions without the protein were prepared. All solutions were centrifuged before the NMR measurements. NMR spectra were collected on Bruker Avance III 800 MHz spectrometer equipped with CryoProbe. Data were processed and analysed in TopSpin 3.5 (Bruker, Karlsruhe, Germany).
Measurements were conducted using an ITC-200 instrument (Microcal) as previously described. ITC titrations were performed in 20 mM MES pH 6.1, 50 mM NaCl, 1.0 mM TCEP and 5 mM CaCl2 (for Ca^2+-form of S100P) at 25°C. […]

COS-7 S10 cells = assay: Boyden chamber cell migration, S100P-inducible COS-7; type: cell-based, monkey; conditions: for effect on S100P-enhanced migration: COS-7 S10, 20 nM taxol or 5 µM colchicine, 24 h
Excerpt: (§1) Cell migration rate (%) = M/G × 100.

COS-7 cells = assay: Boyden chamber cell migration, COS-7 parental; type: cell-based, monkey
Excerpt: as §1

Rama 37-T25 cells = assay: S100P-enhanced cell migration, Rama 37-T25; type: cell-based, rat; conditions: Rama 37-T25; 20 nM taxol or 5 µM colchicine, 24 h
Excerpt: as §1

HeLa-A3 cells = assay: S100P-enhanced cell migration, HeLa-A3; type: cell-based, human; conditions: HeLa-A3; 20 nM taxol or 5 µM colchicine, 24 h
Excerpt: as §1

cell migration = conditions: almost all cell types tested, ref [17]; cited from earlier work
Excerpt: It was reported that complete disruption of MTs in CHO and HeLa cells retained normal migration rates, but the resultant movement became more random and reduced overall travel distance.

HeLa cells = assay: Boyden chamber cell migration with MT regulators, HeLa; conditions: 20 nM taxol, 24 h
MCF-7 cells = assay: Boyden chamber cell migration with MT regulators, MCF-7; conditions: 20 nM taxol, 24 h, MCF-7
Rama 37 cells = assay: Boyden chamber cell migration with MT regulators, Rama 37; conditions: 20 nM taxol, 24 h
Dicytostelial cells = conditions: ref [40]; cited from earlier work
Excerpt: It was reported that complete disruption of MTs in CHO and HeLa cells retained normal migration rates, but the resultant movement became more random and reduced overall travel distance. […] Well-established MTs may increase the rigidity of cells as well as their polarity and play a constraining role to limit a cell's ability of moving and changing direction. […] However, unlike the scratch wound- ...

αβ-tubulin [2] = biological target: αβ-tubulin (UniProt P68363); assay: SPR; αβ-tubulin immobilised on a CM5 chip, S100P in solution; 150 mM NaCl, 0.5 mM CaCl2, multiple cycles; Kd from the association and dissociation rate constants
αβ-tubulin [3] = biological target: αβ-tubulin (UniProt P68363); assay: SPR; αβ-tubulin immobilised on a CM5 chip (Biacore X100), S100P in solution; 150 mM NaCl, 0.5 mM CaCl2, single cycle; Kd from the association and dissociation rate constants
αβ-tubulin [4] = biological target: αβ-tubulin (UniProt P68363); assay: SPR; αβ-tubulin immobilised on a CM5 chip, S100P in solution; 300 mM NaCl (printed 300M), 0.5 mM CaCl2, multiple cycles; Kd from the extent of binding at or near equilibrium
αβ-tubulin [5] = biological target: αβ-tubulin (UniProt P68363); assay: SPR; αβ-tubulin immobilised on a CM5 chip, S100P in solution; 300 mM NaCl (printed 300M), 0.5 mM CaCl2, multiple cycles; Kd from the association and dissociation rate constants
αβ-tubulin [6] = biological target: αβ-tubulin (UniProt P68363); assay: SPR; αβ-tubulin immobilised on a CM5 chip, S100P in solution; 500 mM NaCl (printed 500M), 0.5 mM CaCl2, multiple cycles; Kd from the association and dissociation rate constants
[7] = biological target: T2, α,β-tubulin immobilised on a chip (human | , UniProt Q71U36 1-451; P07437 1-444); assay: cell-based or functional assay
[8] = biological target: T2, α,β-tubulin immobilised on a chip; assay: SPR; α,β-tubulin immobilised on CM5 chip; S100P in solution; single-cycle analysis; Kd near equilibrium; conditions: both partners purified
[9] = biological target: T2, α,β-tubulin immobilised on a chip; assay: SPR; α,β-tubulin immobilised on CM5 chip; S100P in solution; Kd from the ratio of forward and backward rate constants; conditions: both partners purified
[10] = biological target: DIC peptide, the 26mer starting with DIC from β-tubulin; assay: ITC; peptide (10-400 µM) in the cell titrated with S100P (0.5-3 mM); 25°C; 20 mM MES pH 6.1, 50 mM NaCl, 1.0 mM TCEP, 5 mM CaCl2; single site fit
[11] = biological target: VNA peptide from the C terminus of α-tubulin (human); assay: as above
[12] = biological target: T2, α,β-tubulin immobilised on a chip; assay: SPR; α,β-tubulin immobilised on CM5 chip; S100P in solution; high salt buffer (0.5 M NaCl) with 200 µM CaCl2; multiple cycles; Kd at or near equilibrium; conditions: both partners purified
[13] = biological target: T2, α,β-tubulin immobilised on a chip; assay: SPR; α,β-tubulin immobilised on CM5 chip (BS3), Biacore X100; S100P 20-2000 nM in solution; 0.15 M NaCl, 200 µM CaCl2; multiple-cycle; Kd from extent of binding near equilibrium; conditions: both partners purified
Recombinant S100P [14] = biological target: T3, Recombinant S100P (UniProt P25815 1-95, 15N-labelled in the NMR experiments); assay: ITC
T3 chain: T1 sequence (P25815 1-95)

Recombinant S100P [15] = biological target: T3, Recombinant S100P; assay: SPR; competition: 20 µM peptide mixed with 1 µM S100P, applied to the α,β-tubulin-coated chip; extent of binding relative to S100P alone (100%)

T2 sequence (P68363 whole entry, chain 1 of 2): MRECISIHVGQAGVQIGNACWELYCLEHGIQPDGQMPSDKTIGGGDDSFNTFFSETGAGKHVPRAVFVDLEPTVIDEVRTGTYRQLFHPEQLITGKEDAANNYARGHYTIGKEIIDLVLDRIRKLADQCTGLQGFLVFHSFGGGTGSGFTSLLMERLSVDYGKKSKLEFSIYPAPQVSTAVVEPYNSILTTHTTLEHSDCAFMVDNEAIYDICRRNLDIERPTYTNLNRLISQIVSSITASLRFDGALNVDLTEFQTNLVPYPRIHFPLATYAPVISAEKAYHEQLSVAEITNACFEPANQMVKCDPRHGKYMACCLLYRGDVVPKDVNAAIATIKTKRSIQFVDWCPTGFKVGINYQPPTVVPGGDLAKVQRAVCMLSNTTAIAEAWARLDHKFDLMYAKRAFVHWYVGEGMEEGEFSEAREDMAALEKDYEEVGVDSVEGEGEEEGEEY
T2 sequence (P07437 whole entry, chain 2 of 2): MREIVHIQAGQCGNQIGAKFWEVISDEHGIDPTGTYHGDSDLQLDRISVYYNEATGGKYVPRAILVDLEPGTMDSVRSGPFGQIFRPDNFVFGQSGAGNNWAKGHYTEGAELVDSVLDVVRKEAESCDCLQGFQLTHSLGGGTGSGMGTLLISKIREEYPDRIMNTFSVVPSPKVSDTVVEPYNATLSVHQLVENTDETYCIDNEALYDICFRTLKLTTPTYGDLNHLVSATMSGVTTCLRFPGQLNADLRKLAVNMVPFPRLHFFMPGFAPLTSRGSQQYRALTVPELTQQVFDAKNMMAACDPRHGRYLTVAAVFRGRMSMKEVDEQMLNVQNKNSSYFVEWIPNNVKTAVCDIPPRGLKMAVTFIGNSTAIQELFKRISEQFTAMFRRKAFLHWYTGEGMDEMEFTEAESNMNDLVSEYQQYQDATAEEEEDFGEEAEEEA

In the case of DICFRTLKLTTPTYGDLNHLVSATMS [DIC], the Kd (S100P) is reported as 9000 nM and the “solubility / aggregation (in words)” value [1] is reported as “sufficiently soluble to measure their binding parameters by ITC”.

In the case of `CC(=O)O[C@H]1C(=O)[C@@]2(C)[C@H]([C@H](OC(=O)c3ccccc3)[C@]3(O)C[C@H](OC(=O)[C@H](O)[C@@H](NC(=O)c4ccccc4)c4ccccc4)C(C)=C1C3(C)C)[C@]1(OC(C)=O)CO[C@@H]1C[C@@H]2O` [taxol], the “effect on S100P-enhanced migration” value (COS-7 S10 cells) is reported as “suppressed”, the “effect on S100P-enhanced migration” value (COS-7 S10 cells; listed as Taxol) is reported as “completely prevents the S100P-induced stimulation of migration” and the “effect on S100P's stimulation of migration” value (COS-7 S10 cells; taxol to stabilise MTs or colchicine to dissociate MTs (abstract)) is reported as “abolished”. For the same molecule, the “reduction of migration by taxol” value (COS-7 cells; 20 nM taxol, 24 h, COS-7) was 70–75%, the “dose dependence of taxol effect on migration” value (COS-7 cells; Supplementary Figure S4, COS-7, 24 h) was “significantly reduced cell migration in a dose-dependent manner” and the “effect on S100P-enhanced migration” value (Rama 37-T25 cells) was “suppressed”. The “effect on S100P-enhanced migration” value (HeLa-A3 cells) was “suppressed”, the “effect on cell migration” value (cell migration) was “significantly reduced cell migration in almost all cell types tested” and the “reduction of migration by taxol” value (HeLa cells) was 70–75%. The “reduction of migration by taxol” value (MCF-7 cells) was 70–75% and the “reduction of migration by taxol” value (Rama 37 cells) was 70–75%.

In the case of `COC(=O)Nc1nc2ccc(C(=O)c3cccs3)cc2[nH]1` [nocodazole], the “effect on cell migration” value (Dicytostelial cells) is listed as “could significantly increase cell migration and shape changes, but reduced chemotaxis; also recorded: dramatically enhance the non-directional (random) movements”.

B1: S100P (natural protein)
chain: T1 sequence (P25815 1-95)
B1 gave a Kd (αβ-tubulin [2]) of 210 nM, a Kd (αβ-tubulin [3]) of 120 nM and a Kd (αβ-tubulin [4]) of 1100 nM. It also gave a Kd (αβ-tubulin [5]) of 890 nM and a Kd (αβ-tubulin [6]) of 8300 nM.

B2: Recombinant S100P (natural protein)
chain: T1 sequence (P25815 1-95)
modifications: 15N-labelled in the NMR experiments
notes: S100P; Used in SPR, gel overlay, NMR and ITC; also called 15N-labelled S100P; source: recombinant, produced as described previously [10]
In the case of B2, the “S100P-induced fold increase in migration of COS-7 S10 cells (3.4 or 3.5 fold with DMSO or Tag), with 20 µM T-DIC” value [7] is reported as 1.4 fold, the “S100P-induced fold increase in migration of COS-7 S10 cells (3.4 or 3.5 fold with DMSO or Tag), with 20 µM T-DLV” value [7] is reported as 1.5 fold and the Kd [8] is reported as 220 nM. The Kd [9] was 100 to 200 nM, the Kd [10] was 9000 nM and the Kd [11] was 62000 nM. The stoichiometry N (peptide:protein) [11] was 2, the Kd [12] was 6100 nM and the Kd [13] was 310 nM.

For DLVLDRIRKLADQCTGLQGFLVFHSFGGGT [DLV peptide, the 30mer starting with DLV from α-tubulin], the Kd (Recombinant S100P [14]) was < 10000 nM and the percent inhibition of the extent of binding of 1 µM S100P to α,β-tubulin at 20 µM peptide (Recombinant S100P [15]) was > 50%.
